Source: patent US10442866

How the values were obtained:
[1] = target: recombinant human OX40-his (Sino Biological, Cat#:10481-H03H) (human) (UniProt P43489); assay: ELISA on coated human OX40-His, OD450
[2] = target: rhesus OX40 expressed on HEK293A cells (rhesus); assay: FACS on HEK293A/rhOX40 cells, MFI
[3] = target: recombinant human OX40-his (Sino Biological, Cat#:10481-H03H) (human) (UniProt P43489); assay: SPR Biacore 8K, OX40-His on chip, antibody injected
[4] = target: recombinant rhesus OX40-his (Sino Biological, Cat#:90846-C08H) (rhesus monkey); assay: ELISA on coated rhesus OX40-His, OD450
Sequence of recombinant rhesus OX40-his (Sino Biological, Cat#:90846-C08H) (rhesus monkey) (P43489 other isoform, or with tags, fused parts or gaps C08H C08H limits assumed): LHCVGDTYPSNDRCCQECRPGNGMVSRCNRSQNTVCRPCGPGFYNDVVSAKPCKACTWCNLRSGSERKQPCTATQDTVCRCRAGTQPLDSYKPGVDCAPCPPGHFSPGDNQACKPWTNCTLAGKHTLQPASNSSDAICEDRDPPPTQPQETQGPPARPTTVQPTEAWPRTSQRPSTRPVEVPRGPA

[5] = target: recombinant human OX40-his (Sino Biological, Cat#:10481-H03H) (human) (UniProt P43489); assay: ELISA, coated hOX40-his
[6] = target: human OX40 expressed on HEK293A cells (human) (UniProt P43489); assay: FACS on HEK293A/huOX40 cells, MFI
Sequence of human OX40 expressed on HEK293A cells (human) (P43489 29-277 limits assumed): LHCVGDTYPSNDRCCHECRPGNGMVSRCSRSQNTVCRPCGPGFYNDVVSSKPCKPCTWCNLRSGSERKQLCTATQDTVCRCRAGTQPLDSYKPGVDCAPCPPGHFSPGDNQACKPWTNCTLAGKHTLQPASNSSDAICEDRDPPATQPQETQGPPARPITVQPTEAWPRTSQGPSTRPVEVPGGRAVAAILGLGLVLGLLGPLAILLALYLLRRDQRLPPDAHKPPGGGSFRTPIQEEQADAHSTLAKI

[7] = target: human OX40-CD40 fusion protein on HEK-Blue reporter cells (human); assay: cell-based or functional assay
Sequence of human OX40-CD40 fusion protein on HEK-Blue reporter cells (human) (chain, as listed by the source limits assumed): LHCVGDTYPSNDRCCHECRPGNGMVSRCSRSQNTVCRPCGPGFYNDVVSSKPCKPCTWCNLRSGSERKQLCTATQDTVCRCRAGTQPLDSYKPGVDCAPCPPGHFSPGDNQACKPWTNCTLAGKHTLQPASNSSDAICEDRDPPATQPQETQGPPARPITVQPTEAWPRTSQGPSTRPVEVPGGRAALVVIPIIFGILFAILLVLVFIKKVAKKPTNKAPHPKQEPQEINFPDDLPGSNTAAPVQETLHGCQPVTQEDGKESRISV

[8] = target: human OX40 expressed on HEK293A cells (human) (UniProt P43489); assay: FACS on HEK293A cells
[9] = target: rhesus OX40 expressed on HEK293A cells (rhesus); assay: FACS on HEK293A cells
[10] = target: recombinant rhesus OX40-his (Sino Biological, Cat#:90846-C08H) (rhesus monkey); assay: ELISA, coated rhOX40-his

Sequence of rhesus OX40 expressed on HEK293A cells (rhesus) (P43489 other isoform, or with tags, fused parts or gaps limits assumed): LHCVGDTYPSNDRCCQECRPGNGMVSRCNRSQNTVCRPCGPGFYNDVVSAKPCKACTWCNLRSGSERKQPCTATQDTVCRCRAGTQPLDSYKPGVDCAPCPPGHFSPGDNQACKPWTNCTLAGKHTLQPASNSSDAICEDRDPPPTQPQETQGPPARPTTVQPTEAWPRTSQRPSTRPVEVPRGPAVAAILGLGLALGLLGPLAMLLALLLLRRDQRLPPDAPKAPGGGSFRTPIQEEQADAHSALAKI
Sequence of recombinant human OX40-his (Sino Biological, Cat#:10481-H03H) (human) (P43489 29-214 limits assumed): as the sequence (P43489 other isoform, or with tags, fused parts or gaps C08H C08H limits assumed) above, with Q16H, N29S, A50S, A55P, P70L, P145A, T159I, R173G, R183G, P185R counted along it

Row | EC50 (read off the curve) [1] [ng/mL] | EC50 (read off the curve) [2] [ng/mL] | Kd [3] [nM] | koff [3] [s⁻¹] | kon [3] [M⁻¹ s⁻¹] | EC50 (read off the curve) [4] [ng/mL] | EC50 [5] [µg/mL] | EC50 (read off the curve) [6] [ng/mL] | EC50, agonistic activity in HEK-Blue assay [7] [ng/mL] | EC50 [8] [µg/mL] | EC50 [9] [µg/mL] | EC50 [10] [µg/mL] | Binder
1 | 3 | 300 | 1.79 | 0.000154 | 86300 | 3 | 0.0651 | 300 | 310 | 0.0935 | 0.088 | 0.0546 | MEDI0562 (antibody, INN chains, looked up, V domains shown) VH: QVQLQESGPGLVKPSQTLSLTCAVYGGSFSSGYWNWIRKHPGKGLEYIGYISYNGITYHNPSLKSRITINRDTSKNQYSLQLNSVTPEDTAVYYCARYKYDYDGGHAMDYWGQGTLVTVSS VL: DIQMTQSPSSLSASVGDRVTITCRASQDISNYLNWYQQKPGKAPKLLIYYTSKLHSGVPSRFSGSGSGTDYTLTISSLQPEDFATYYCQQGSALPWTFGQGTKVEIK
2 | 3 |  | 0.00549 | 1.76e-06 | 322000 | 3 | 0.0637 |  | 121 | 0.134 | 0.113 | 0.0668 | RG7888 (antibody, INN chains, looked up, V domains shown) VH: EVQLVQSGAEVKKPGASVKVSCKASGYTFTDSYMSWVRQAPGQGLEWIGDMYPDNGDSSYNQKFRERVTITRDTSTSTAYLELSSLRSEDTAVYYCVLAPRWYFSVWGQGTLVTVSS VL: DIQMTQSPSSLSASVGDRVTITCRASQDISNYLNWYQQKPGKAPKLLIYYTSRLRSGVPSRFSGSGSGTDFTLTISSLQPEDFATYYCQQGHTLPPTFGQGTKVEIK
